Experimental data as given in the supplement of paper PMC7877785.
± gives the uncertainty stated by the source.

Assay: self-splicing fitness, log relative to wild type (ln ratio); higher = more splicing; Tetrahymena group I intron in knt gene, E. coli kanamycin selection, DiMSum; sequences stand for … in CUCUCU…GGAGGGAAAAGUUAUCAGGCAUGCACCUGGUAGCUAGUCUUUAAACCAAUAGAUUGCAUCGGUUUAAAAGGCAAGACCGUCAAAUUGCGGGAAAGGGGUCAACAGCCGUUCAGUACCAAGUCUCAGGGGAAACUUUGAGAUGGCCUUGCAAAGGGUAUGGUAAUAAGCUGACGGACAUGGUCCUAACCACGCAGCCAAGUCCUAAGUCAACAGAUCUUCUGUUGAUAUGGAUGCAGUUCACAGACUAAAUGUCGGUCGGGGAAGAUGUAUUCUUCUCAUAAGAUAUAGUCGGACCUCUCCUUAAUGGGAGCUAGCGGAUGAAGUGAUGCAACACUGGAGCCGCUGGGAACUAAUUUGUAUGCGAAAGUAUAUUGAUUAGUUUUGGAGUACUCGUGGUCG
Summary of the method: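 A randomised library covering all eight P1ex-region intron nucleotides was built with the intron in the knt kanamycin-resistance gene on pET-22b(+) and held in E. coli BL21(DE3). Cells were grown overnight at 37°C or 30°C on LB agar, with or without 25 μg/mL kanamycin, plus 100 μg/mL carbenicillin, 50 μM IPTG and 0.2% rhamnose, and pooled colonies were amplicon-sequenced on an Illumina HiSeq 2500. DiMSum fitness is the error-weighted combination of wild-type-normalised replicate fold changes, kanamycin versus none.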

Row | Sequence | self-splicing fitness (ln) (30 °C) | self-splicing fitness (ln) (37 °C)
1 | GGAAAGCAAUAUUACGGUGC | -3.36 ± 0.27 | -1.62 ± 0.23
2 | GGGGAGCAAUAUUACGCGAU |  | -0.791 ± 0.24
3 | AGUAAGCAAUAUUACGUGGC | -2.68 ± 0.16 | -2.54 ± 0.22
4 | CCGAAGCAAUAUUACGUUUA | -3.96 ± 0.26 | -2.95 ± 0.19
5 | AGCUAGCAAUAUUACGUAUU | -3.8 ± 0.23 | -1.35 ± 0.15
6 | GGAUAGCAAUAUUACGUCCG | -0.616 ± 0.17 | -0.972 ± 0.2
7 | GUUAAGCAAUAUUACGGCUA | 0.289 ± 0.099 | 0.176 ± 0.1
8 | UGGAAGCAAUAUUACGGCCC | -0.223 ± 0.15 | 0.256 ± 0.18
9 | CGGAAGCAAUAUUACGACAG | -0.256 ± 0.17 | 0.0808 ± 0.23
10 | UGACAGCAAUAUUACGCCUA | 0.107 ± 0.069 | 0.414 ± 0.086
11 | CCCGAGCAAUAUUACGGCCU | -2.93 ± 0.33 | 
12 | ACAGAGCAAUAUUACGGACU | -2.73 ± 0.18 | -1.07 ± 0.14
13 | CCUUAGCAAUAUUACGUCCU | -2.36 ± 0.17 | -2.65 ± 0.38
14 | UUUAAGCAAUAUUACGACAA | -0.409 ± 0.098 | -0.304 ± 0.12
15 | UAAGAGCAAUAUUACGUUAC |  | -2.7 ± 0.34
16 | CUCUAGCAAUAUUACGCUCA | -1.32 ± 0.3 | -3.25 ± 0.37
17 | UCUUAGCAAUAUUACGACAA | -2.45 ± 0.32 | -1.18 ± 0.29
18 | GAAGAGCAAUAUUACGCACC | -0.341 ± 0.2 | 0.037 ± 0.22
19 | UUAGAGCAAUAUUACGUACC |  | -0.711 ± 0.48
20 | UUCUAGCAAUAUUACGACGG | -1.31 ± 0.1 | -1.77 ± 0.15
21 | GCGAAGCAAUAUUACGGUAU | -3.35 ± 0.18 | -0.774 ± 0.1
22 | GUUAAGCAAUAUUACGACAU | -0.0837 ± 0.013 | 0.118 ± 0.033
23 | CUACAGCAAUAUUACGAGCA | -2.77 ± 0.16 | -2.56 ± 0.23
24 | UGGCAGCAAUAUUACGUGCA | -0.0165 ± 0.1 | -0.0321 ± 0.14
25 | UCACAGCAAUAUUACGCGUG | -2.87 ± 0.14 | -2.13 ± 0.14

Row | Sequence | self-splicing fitness (ln) (30 °C) | self-splicing fitness (ln) (37 °C)
26 | CGUAAGCAAUAUUACGUAUA | -2.48 ± 0.26 | -2.21 ± 0.26
27 | ACCGAGCAAUAUUACGGGCC | -3.39 ± 0.17 | -2.09 ± 0.15
28 | ACUGAGCAAUAUUACGAAAU | -2.94 ± 0.24 | -1.72 ± 0.22
29 | CAAGAGCAAUAUUACGGUGA | -3.01 ± 0.2 | -1.88 ± 0.21
30 | UACCAGCAAUAUUACGCUAG | -1.76 ± 0.074 | -1.03 ± 0.083
31 | GUUAAGCAAUAUUACGCUGU | -2.62 ± 0.21 | -1.78 ± 0.17
32 | AAAGAGCAAUAUUACGAUUG | -4.1 ± 0.24 | -2.29 ± 0.21
33 | CCGUAGCAAUAUUACGCUUG | -1.48 ± 0.069 | -0.347 ± 0.075
34 | UCACAGCAAUAUUACGGCCC | -3.44 ± 0.45 | -1.82 ± 0.44
35 | UCGCAGCAAUAUUACGGCUG | -3.46 ± 0.24 | -2.45 ± 0.32
36 | GACGAGCAAUAUUACGGGAU | -4.33 ± 0.28 | -1.74 ± 0.18
37 | AAUCAGCAAUAUUACGUAAG | -0.572 ± 0.075 | -0.104 ± 0.1
38 | AGGCAGCAAUAUUACGUGUC | -3.18 ± 0.15 | -2.58 ± 0.19
39 | GCUUAGCAAUAUUACGGAGG | -1.54 ± 0.1 | -0.819 ± 0.094
40 | CGUCAGCAAUAUUACGACGU | -3.23 ± 0.17 | -1.93 ± 0.14
41 | CACUAGCAAUAUUACGCGUG | -3.99 ± 0.21 | -3.12 ± 0.25
42 | UACUAGCAAUAUUACGGUCA | 0.103 ± 0.086 | 0.31 ± 0.083
43 | CUAAAGCAAUAUUACGUAUC | -3.77 ± 0.18 | -2.22 ± 0.22
44 | UAUCAGCAAUAUUACGAAUG | 0.00149 ± 0.052 | 0.0362 ± 0.07
45 | GUGCAGCAAUAUUACGGGAA | -3.67 ± 0.25 | -1.9 ± 0.13
46 | AACAAGCAAUAUUACGAACC | -1.27 ± 0.12 | 0.0146 ± 0.19
47 | GGCAAGCAAUAUUACGCUAU | -0.0842 ± 0.13 | -1.13 ± 0.11
48 | GUGGAGCAAUAUUACGGCGU | -1.29 ± 0.26 | -0.557 ± 0.48
49 | GUUGAGCAAUAUUACGUGGA | -1.2 ± 0.37 | -2.45 ± 0.34
50 | CGCAAGCAAUAUUACGUUCA | -1.33 ± 0.1 | -0.636 ± 0.098

Row | Sequence | self-splicing fitness (ln) (30 °C) | self-splicing fitness (ln) (37 °C)
51 | UCUCAGCAAUAUUACGCCUG |  | -2.27 ± 0.47
52 | GAACAGCAAUAUUACGAUCU | -1.33 ± 0.055 | -0.287 ± 0.078
53 | GAUGAGCAAUAUUACGCGCU | -1.97 ± 0.23 | -1.88 ± 0.45
54 | GGACAGCAAUAUUACGCUAU | -1.42 ± 0.098 | -0.49 ± 0.11
55 | CAGUAGCAAUAUUACGGGGC | -2.54 ± 0.15 | -2.55 ± 0.23
56 | GUGUAGCAAUAUUACGUAGA | -3.14 ± 0.25 | -1.8 ± 0.36
57 | GGGCAGCAAUAUUACGAAGU | -1.95 ± 0.14 | -0.794 ± 0.21
58 | CUGCAGCAAUAUUACGCUAA | -3.28 ± 0.29 | 
59 | CACGAGCAAUAUUACGCACU | -2.87 ± 0.39 | -1.61 ± 0.23
60 | CCUAAGCAAUAUUACGAAGU | -2.62 ± 0.13 | -1.21 ± 0.13
61 | UUACAGCAAUAUUACGUCGU | -3.81 ± 0.16 | -2.26 ± 0.14
62 | CUGAAGCAAUAUUACGACAC | -2.05 ± 0.32 | 
63 | CCUGAGCAAUAUUACGUGUU | -4.7 ± 0.34 | -2.52 ± 0.17
64 | CGUCAGCAAUAUUACGGUCC | -1.34 ± 0.079 | -0.173 ± 0.1
65 | AACCAGCAAUAUUACGAUAG | -2.87 ± 0.16 | -2.11 ± 0.15
66 | GAGGAGCAAUAUUACGGCUU | -3.52 ± 0.37 | -2.39 ± 0.25
67 | CUCUAGCAAUAUUACGUUUC | -5.02 ± 0.45 | -2.62 ± 0.19
68 | CUUUAGCAAUAUUACGAUGC | -2.95 ± 0.24 | 
69 | AGUUAGCAAUAUUACGGUUU | -0.98 ± 0.071 | -0.317 ± 0.1
70 | GAAGAGCAAUAUUACGCAAA |  | -2.69 ± 0.33
71 | AUUUAGCAAUAUUACGCGGG | -2.72 ± 0.19 | -1.96 ± 0.16
72 | CGUUAGCAAUAUUACGGUAA | -1.58 ± 0.26 | -0.129 ± 0.28
73 | CACUAGCAAUAUUACGAUUG | -0.641 ± 0.07 | -0.457 ± 0.081
74 | GGCUAGCAAUAUUACGCAUU | -0.352 ± 0.074 | 0.553 ± 0.086
75 | UACGAGCAAUAUUACGAACA | -2.11 ± 0.27 | -2.13 ± 0.29

Row | Sequence | self-splicing fitness (ln) (30 °C) | self-splicing fitness (ln) (37 °C)
76 | UCAGAGCAAUAUUACGGACG | -3.67 ± 0.44 | -1.58 ± 0.2
77 | AUGCAGCAAUAUUACGGGAU | -2.25 ± 0.088 | -1.06 ± 0.097
78 | GCAGAGCAAUAUUACGCGAC |  | -2.27 ± 0.36
79 | CACAAGCAAUAUUACGGGUA | -1.26 ± 0.07 | -0.601 ± 0.076
80 | CCCUAGCAAUAUUACGAGUA | -3.32 ± 0.29 | -2.72 ± 0.33
81 | UCUCAGCAAUAUUACGUUUA | -2.98 ± 0.18 | -1.08 ± 0.13
82 | ACUCAGCAAUAUUACGGUAG | -3.73 ± 0.13 | -2.92 ± 0.15
83 | AACAAGCAAUAUUACGUGUA | -1.55 ± 0.046 | -1.01 ± 0.054
84 | ACACAGCAAUAUUACGCGUG | -2.25 ± 0.074 | -1.68 ± 0.081
85 | CGAGAGCAAUAUUACGCUUG | -3.51 ± 0.33 | -3.14 ± 0.34
86 | AGAUAGCAAUAUUACGACGC | -0.572 ± 0.16 | 0.997 ± 0.22
87 | CAUCAGCAAUAUUACGUCUC | -3.16 ± 0.19 | -1.75 ± 0.17
88 | CCUAAGCAAUAUUACGGUCG | -0.889 ± 0.065 | -0.252 ± 0.086
89 | CCCCAGCAAUAUUACGGUUG | -2.4 ± 0.087 | -1.5 ± 0.1
90 | UGAGAGCAAUAUUACGUUAC |  | -1.79 ± 0.3
91 | GUUCAGCAAUAUUACGCUAA | -1.03 ± 0.2 | 0.184 ± 0.2
92 | GCUCAGCAAUAUUACGUGUG | -1.26 ± 0.063 | -0.824 ± 0.074
93 | GGGUAGCAAUAUUACGCACU | -3.8 ± 0.47 | -0.577 ± 0.29
94 | ACUUAGCAAUAUUACGCCUG | -1.12 ± 0.18 | -0.484 ± 0.19
95 | ACAAAGCAAUAUUACGGCGU | -1.78 ± 0.075 | -1.17 ± 0.093
96 | ACUUAGCAAUAUUACGAGUC |  | -3.01 ± 0.35
97 | UUCGAGCAAUAUUACGUGUA | -2.65 ± 0.09 | -1.86 ± 0.095
98 | CGCCAGCAAUAUUACGGGCU | -3.79 ± 0.18 | -2.04 ± 0.12
99 | UCUCAGCAAUAUUACGCUGU | -2.3 ± 0.21 | -1.17 ± 0.31
